Measured values: the supplement of paper PMC9170038

Assays:
MS2 coat protein [1] = test: apparent KD of MS2 coat protein, switch ON state; designed switch direction (-1 OFF switch, 1 ON switch): 1; higher = weaker reporter binding; conditions: FMN input: 0 or 200 uM; Eterna round: R93 (includes R88 designs)
Method in brief: (§1)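 Illumina sequencing clusters were used for on-chip transcription of designed RNA switches. Titration with SNAP-549-labelled MS2 coat protein followed, in twofold steps from 0.7 or 1.5 nM to 3 µM in 100 mM Tris-HCl pH 7.5, 80 mM KCl, 4 mM MgCl2, without or with constant ligand. Apparent KD is each design's median of fits to normalised cluster binding curves.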

MS2 coat protein [2] = test: apparent KD of MS2 coat protein, switch OFF state (with FMN for OFF switches, without FMN for ON switches); designed switch direction (-1 OFF switch, 1 ON switch): 1; higher = weaker reporter binding; conditions: FMN input: 0 or 200 uM; Eterna round: R93 (includes R88 designs)
Method in brief: as §1

Sequence | apparent KD of MS2 coat protein (MS2 coat protein [1]) | apparent KD of MS2 coat protein (MS2 coat protein [2])
CGGAGACAUGAGGAUCACCCAUGUGAGAAGAGGCGAGGAUAUCGAAAGAAAGAAGAGAAACGAGAAGGCGCGAGCC [salish99-SS1-080(!)] | 32.1 nM | 31.4 nM
AAAAAAAAAAGGCAGGAUAUCCAAAAAAAAACAUGAGGAUCACCCAUGUAAAAAAAAAAAAAAUGGGAGAAGGGCCAAAAAAAAAA [Mat - Mod of Eli] | 24.9 nM | 46.3 nM
AUAAAACAUGAGGAUCACCCAUGUAGACACGUGGGAGGAUAUACUAGAUCGAAAGAUCUAGUAGAAGGCCUUCGUA [Mat - Same State 1 - JL mod - D94] | 23.7 nM | 38.4 nM
GAAAAACAUGAGGAUCACCCAUGUAGAAAUAUGGAAGGAUAUACAAAGACGAAAGUCAAAGUAGAAGGUCUAAAAG [Mat - Same State 1 - Eli mod - D13] | 15.5 nM | 19.8 nM
GAGGACAUAGUACAGGAUAUAUGAAUAGUUACAUGAGGAUCACCCAUGUGCAUUUAUAUGCGCACAUAGAAGGGUGGUAGUUAUC [SameState2 Malc#29] | 38.8 nM | 33.5 nM
AGGAGACAUGAGGAUCACCCAUGUGAGAAGAGGCGAGGAUAUCGAAAGAAAGAAGAGAAACGAGAAGGCGCGAGUG [salish99-SS1-026] | 28.1 nM | 40.9 nM
GAAAAACAUGAGGAUCACCCAUGUAAAAAUAUGGGAGGAUAUAGAAAGACGAAAGUCAAACUAGAAGGCCUAAAAG [Garnet 1] | 28.1 nM | 63 nM
AAAAAACAUGAGGAUCACCCAUGUGCAAAAUUCGCAGGAUAUCCCUUUUUUAAAUGGGAGGGAGAAGGGUGUAAAA [Nob's Hobby 18 - Jieux - Same State 1] | 27.1 nM | 47.4 nM
AAUAUACAUGAGGAUCACCCAUGUUUUAAUAACGCAGGAUAUACGGGUGAAAACAGCAUAGUAGAAGGGCGAAAAA [SameState1 Malc#1] | 31.8 nM | 106 nM
AAGAAACAUGAGGAUCACCCAUGUAGAAAUAUGGGAGGAUAUACAAGGACGAAAGUCAAGGUAGAAGGCCUAAGAA [Mat - Same State 1 - Meechl mod - D132] | 20.7 nM | 112 nM
AAUAGACAUGAGGAUCACCCAUGUAGAAUUAUGGGAGGAUAUACAAAGACGAGAGUCAGAGUAGAAGGCCUAGGAU [salish99-ss1-149] | 24.7 nM | 51.8 nM
AUAAAAGAAGCGAAGGAUAUCCAAAGGACCACAUGAGGAUCACCCAUGUAAAGAAAGAAAAAAUGGGAGAAGGUCGCAAAGAAUA [73%, More Fisker Same State 2, D3, 7] | 74.9 nM | 97.4 nM
GGAGCUCCAGCGCAGGAUAUCGACCCAGGGACAUGAGGAUCACCCAUGUUCCAAAAAAAAUGGGUCGAGAAGGGCGUUGGAGAGCC [SAmeState2-III] | 11 nM | 12.2 nM
AAUAUACAUGAGGAUCACCCAUGUUAGGUGGGACUAGGAUAUCAGAGUACAUAAUGAACAUGAGAAGGAGUAUCAA [JR_SS001_Sub404] | 115 nM | 110 nM
AAGAAAGUUUACGAGGAUAUGUUCCGCAUAACAUGAGGAUCACCCAUGUGAACAAGAAAGGCGACGCAGAAGGCGUGAGCAAAGA [Atanansori] | 26.1 nM | 403 nM
AGAAAUAAAAGAGAGGAUAUCCUAAAGAAAACAUGAGGAUCACCCAUGUAAAAGAAAAUAAAAUGGGAGAAGGCUCAAAAUAAAG [80%, More Helter Skelter 2] | 15.4 nM | 39.5 nM

Sequence | apparent KD of MS2 coat protein (MS2 coat protein [1]) | apparent KD of MS2 coat protein (MS2 coat protein [2])
AGAAGACAUGAGGAUCACCCAUGUGGGAAUAUGGGAGGAUAUACAAAGACGAGAGUCAGAGUAGAAGGCCUAGGCA [salish99-ss1-111] | 47 nM | 129 nM
AACAAUCUAUCUGAGGAUAUCAAAAAAAAAACAUGAGGAUCACCCAUGUCUAGGAAAACUAGAUAUGAGAAGGCAGAUAGAUUGA [SS1 - 593] | 7.93 nM | 49.6 nM
GAAAAACAUGAGGAUCACCCAUGUGAAAACUUGGGAGGAUAUACUAAGACGAAAGUCGAAGUAGAAGGCCUAAAAG [Same State 1.4j (Mat - Mod of Eli - )] | 19 nM | 89.1 nM
AGGAAACAUGAGGAUCACCCAUGUAAAAGGUGGUUAGGAUAUGCAAAAAGAAAAAGAAAAGCAGAAGGGACAAGAA [mod of top voted: #1] | 351 nM | 600 nM
AAUAUAUUAUUUAAGGAUAUCAUAGGAAACACAUGAGGAUCACCCAUGUGGGAAACCUGGUCGGGUGAGAAGGUGGAUAAUAUAU [Samwise Clockwise 35 - Jieux - Same State 2] | 13.8 nM | 35.2 nM
UAAUAAUAAACCAAGGAUAUGGAGUUUCCAACAUGAGGAUCACCCAUGUUUAGCAUGAAAUCGAUCCAGAAGGUGGAGCCAAAUA [JR_SS002_Sub1005] | 54.1 nM | 102 nM
UAACAACAUGAGGAUCACCCAUGUCAAAUAAAUCGAGGAUAUGGGACGCAAGACGUCUUACCAGAAGGCGAAACAA [Leoratin] | 25.1 nM | 70.9 nM
CGAAAGGAGAGAGAGGAUAUCCAAAGGAAAACAUGAGGAUCACCCAUGUAGAAGGUAGGAGAUUGGGAGAAGGCUCAAGAUAGAG [salish99-ss2-145] | 29.5 nM | 73.2 nM
GGGAGACAUGAGGAUCACCCAUGUGAGAAGAGGCGAGGAUAUCGAAAAAAAAAAAAAAAACGAGAAGGCGCGAGAA [salish99-SS1-003] | 23.3 nM | 38 nM
UAAAAACAUGAGGAUCACCCAUGUAGAAACAUGGGAGGAUAUACAAAGACGAAAGUCAAAGUAGAAGGCCUAAAAU [Mat - Same State 1 - Mod - D169] | 51.4 nM | 43.4 nM
AGGAGACAUGAGGAUCACCCAUGUGAGAAGAGGCGAGGAUAUCGAAAAAAAGAAAGAAAACGAGAAGGCGCGAGAA [salish99-SS1-015] | 37.6 nM | 64.5 nM
AUUCCAACUAGUCAGGAUAUCAGGCGUAAGACAUGAGGAUCACCCAUGUACUUAGUACAAGUAACUGAGAAGGGACAGGGUGUAA [JR_SS002_Sub408] | 20.3 nM | 25.3 nM
AACAAUCUAUCUGAGGAUAUCAAGUCAAAGACAUGAGGAUCACCCAUGUGCAGGAAAACUGCACUUGAGAAGGCAGAUAGAUUGA [SS2: 1109] | 12.3 nM | 9.63 nM
GGGAGACAUGAGGAUCACCCAUGUGAAAACGUGUCAGGAUAUGUAUGGAAACCAUACUGUACAGAAGGGACUUGUC [Quintus Rammius Martialis] | 54.8 nM | 89.2 nM
UACAGACAUGAGGAUCACCCAUGUAGAAUUAUGGGAGGAUAUACAAAGACGAGAGUCAGAGUAGAAGGCCUAGGAU [salish99-ss1-164] | 23.5 nM | 61.3 nM
AACCGGGAGAAGCAGGAUAUUGCCUCUUCAACAUGAGGAUCACCCAUGUAAGUAAAUUGACGAUACAAGAAGGGCUGCUCCUUAC [Raatgees] | 30.5 nM | 74.3 nM
